Measured values published in patent US20220235356.

molecular target: KRAS G12D (GMPPNP-loaded) G12D (Homo sapiens) (UniProt P01116); assay: inhibition; conditions: Raf-1 binding remaining vs no aptamer, average of four aptamers at 5x KRAS; PBS, 37 C, ELISA

activity, 50%:
NCATANNNNNCGGTACGTCCGNNTATGNGTGGGNGGTAAGGGAGACCNCNTGACTAGTACANNNCCACN [NBK2-1]
NNNNNNNNGATCATGNNCCGGGTTCGGNTGGGGGGNNNNNNCATGATCTACTTGACTAGTNNN [NBK1-1]
NNNNNNNNNNNNGGNCATNNGATCATGNNCCGGGTTCGGNTGGGGGGNNNNNNCATGATCTACTTGACTAGTANATGNCCNNNNNN [NBK1]
NNNNNNNNNNNNNNNCATANNNNNCGGTACGTCCGNNTATGNGTGGGNGGTAAGGGAGACCNCNTGACTAGTACANNNCCACNNNN [NBK2]
